Assay results: paper PMC3996484, “Apoptosis Therapy in Cancer: The First Single-molecule Co-activating p53 and the Translocator Protein in Glioblastoma” (Scientific Reports, 2014)

Target: T1, recombinant human His-tagged p53 protein (residues 1-312) (human, UniProt P04637 1-312)
T1 construct: p53 tumor suppressor, human, residues 1-312; source: final buffer with 0.2 mM ZnCl2
Assay: NMR titration; AIDA, 1D proton NMR of tryptophan side chain NH-epsilon signals of p53 alone and of the MDM2/p53 complex; 0.1 mM proteins, 20 mM TrisHCl, 150 mM KCl, pH 7.4, 5 mM beta-mercaptoethanol, 0.02% NaN3, 25°C, 700 MHz
Details: both partners purified

T1 sequence (P04637 1-312): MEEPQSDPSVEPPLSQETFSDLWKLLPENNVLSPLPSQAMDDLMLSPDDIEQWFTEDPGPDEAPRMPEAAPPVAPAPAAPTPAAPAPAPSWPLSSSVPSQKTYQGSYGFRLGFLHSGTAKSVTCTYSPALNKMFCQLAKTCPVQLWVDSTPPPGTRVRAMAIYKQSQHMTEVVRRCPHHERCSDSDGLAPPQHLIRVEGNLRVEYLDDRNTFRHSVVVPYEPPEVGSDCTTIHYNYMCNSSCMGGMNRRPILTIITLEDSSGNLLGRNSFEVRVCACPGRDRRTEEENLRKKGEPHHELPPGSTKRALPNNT

binding result: binds
B1: recombinant human His-tagged N-terminal region of MDM2 (residues 1-118) (domain or fragment, UniProt Q00987 1-118, looked up)
chain: MCNTNMSVPTDGAVTTSQIPASEQETLVRPKPLLLKLLKSVGAQKDTYTMKEVLFYLGQYIMTKRLYDEKQQHIVYCSNDLLGDLFGVPSFSVKEHRKIYTMIYRNLVVVNQQESSDS
notes: MDM2 (murine double minute 2), human, N-terminal region, residues 1-118; Cloned in a derivative of the vector pET-46Ek/LIC (Novagen); also called murine double minute 2
